Reference: the supplement of paper PMC9170038

Tests used:
[1] = tested on: K4 kissing-loop RNA reporter; test: apparent KD of K4 kissing-loop reporter; higher = weaker reporter binding; conditions: Eterna round: R107;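 also: bound reporter read as fluorescence of individual clusters on recovered sequencing chips by microscopy, with normalized cluster intensities fitted with a binding model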
Protocol: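 RNA-MaP round R107: designed RNA switches with theophylline, tryptophan, arginine or FMN aptamers are transcribed on-chip within common flanks. They are titrated with a labelled K4 kissing-loop RNA reporter in RNA-MaP buffer (100 mM Tris pH 7.5, 80 mM KCl, 4 mM MgCl2), without ligand or with the indicated ligand. Median apparent KD per design.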

MS2 coat protein = test: apparent KD of MS2 coat protein; designed switch direction (-1 OFF switch, 1 ON switch): -1; higher = weaker reporter binding; conditions: Eterna round: R95; input ligand: microRNA oligo, concentration not stated
Method in brief: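 For each design, the apparent KD is the median over clusters of curves fitted to normalised cluster fluorescence. Clusters held RNA switches with common flanks, transcribed on Illumina chips by stalled E. coli RNA polymerase. These were titrated with SNAP-549-labelled MS2 coat protein, doubling from 0.7 or 1.5 nM to 3 µM, without input, with 200 uM small-molecule ligand, or with an oligonucleotide input.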

[2] = input ligand: theophylline 20 uM
[3] = input ligand: tryptophan 2.4 mM

Sequence	apparent KD of K4 kissing-loop reporter ([1]; input ligand: FMN 200 uM)	apparent KD of K4 kissing-loop reporter ([1]; input ligand: arginine 13.2 mM)	apparent KD of K4 kissing-loop reporter ([1]; input ligand: none)	apparent KD of K4 kissing-loop reporter [1, 2]	apparent KD of K4 kissing-loop reporter [1, 3]	apparent KD of MS2 coat protein (MS2 coat protein)
UGAUACCAGACGGCCGCCACUCCCGUAAGUCAAAGACUUACGAAGAAGGUUUUUUAGUGAUGUUGGAGGACCGGGUCUGGUAUCU [FiskerMod 19 - Jieux - Exclusion - Tryptophan B]	258 nM	188 nM	210 nM	302 nM	1100 nM	–
AACUGGGUUCGUGAUACCAGCUCACACAUGAGUGAUGUUCAUGUAGUGGGCAAAAUGUGGAGCCCUUGGCAGCACUGUGACCACG [XTheo-B2]	81.1 nM	69 nM	77 nM	73.3 nM	78.5 nM	–
GGCAGUGAUGUUGCCAGUGGCAGAUUAGAAGGAGCGUGGUGAGACACAGGUAGGUCGCUAAUUGAAAUUGCUGUCACUAAAAUGC [#6]	292 nM	282 nM	300 nM	368 nM	212 nM	–
GGAGGAGAGGGAAGGAGCGUGAAAGAGAAAGAAUAUAGUGAUGUUAUAUAGAAGAAAGAAUCACAGGUAGGUCGCCCGGAGGAGG [SSArgB.A]	331 nM	556 nM	684 nM	446 nM	483 nM	–
UGACUGGACUGAAGGAGCGCUGAAGGAGCGUAAGUAGUGAUGUUGCUUACAGGUAGGUCGCAGCAGGUAGGUCGCAGUCUAGUCU	45.3 nM	37.1 nM	56.6 nM	44.3 nM	43.7 nM	–
UUAACCAACAGCGAUACCAGCGUGGAGUGAUGUUCCGAGGAUCGGAGUGAUGUUCCGAAGCGCCCUUGGCAGCGCAGAAGCGCCA [Exclusion Theophylline B GF9]	183 nM	115 nM	130 nM	139 nM	134 nM	–
AAGCAGUCACUCUAAGCCAUCGAAGAUGGUCGAGGACCGGUACGGCCGCCACUCGGAGUGAUGUUCCGAAGACUGCAAAAUAAAA	410 nM	393 nM	468 nM	459 nM	249 nM	–
GUAGGCUACCGAGGAUAUAGUCCAACGGAGUGAUGUUCCGUCUUUCUUCAUCAUUAACGUUGUGAUCUAGAAGGCGGUAGCCUAC	120 nM	440 nM	723 nM	529 nM	687 nM	–
GGAUAGGACAGAGGAUAUCUCUGAGGCAAGAAAACUUGUCUCUAAGGAGAUGACUCAGUGAUGUUGAGAGAAGGCUGUCCUAUCG [FmnBX 12 - #SwitchBubble #StaticStem]	230 nM	144 nM	155 nM	140 nM	157 nM	–
AAGUGAUGUUGUAGUGAUGUUGUGAUGUUGCAGGAUAUAUAGUGAUGUAGAAGGGUAUGUGCAGUUUUAUUUUUUGAGUGUUGAU [ttytmullin]	72.1 nM	31 nM	54.8 nM	42.2 nM	58.1 nM	–
GGACGACAGGCGGCCGCCACUCAAAGCAGCCAGCGAGUGAUGUUCGUGGCGGAGUGAUGUUCCUAGAGGACCGGGUCUGCAGUUC [Same State Tryptophan B GF 18]	449 nM	390 nM	468 nM	490 nM	362 nM	–
AAGCAGUCAGAGAGUGAUGUUCUCAAAUAACGAGGACCGGUACGGCCGCCACUCGAAGACUGCAAGUCCUACGAAAAGUAGGACA [Omei inspired 9]	78.7 nM	59.5 nM	58.3 nM	136 nM	74.4 nM	–
CAACCGUAACACGAUACCAGCCUAGAAGCCAGUGAUGUUGGCCUUUUUUCGGAAAUGAAAGGCCCUUGGCAGCGUGGAUGAACUG [Dibibiquus]	468 nM	304 nM	380 nM	462 nM	338 nM	–
AGACUACCACACUGUCAAUAGACAGUGUACUAGGAUAUGCUGAUAAGCAGAAGGAGUGAUGUUCCCAGGUAGUCAAUAAAAUAAU [FmnAX 13 U28+C66]	274 nM	189 nM	243 nM	270 nM	225 nM	–
AACUAUUAAUGAAUUACAUUUUAUUUUUCUCGAGGACCGGUACGGCCGCCACUCGUACUAUAGUGAUGUUAUAGAUAAGUCCUAA [JR_ExcTryptoA_Sub021]	118 nM	184 nM	134 nM	177 nM	71.3 nM	–
ACCAUCAAAGAUGGCCAGGACUCCGCUGAUACCAGUGUGAAAACACUCCCUUGGCAGCAGGUGAGUGAUGUUCACAGUCCAUGGA [Omel KL Theo A SS B v3]	145 nM	116 nM	150 nM	146 nM	143 nM	–
GGAUAGGACAGAGGAUAUCUCUAAAGAGGCAAGAAAACUUGUCUCAGAGAUGACUCAGUGAUGUUGAGAGAAGGCUGUCCUAUCG [FmnBX 7 - #SwitchBubble #StaticStem]	425 nM	161 nM	174 nM	168 nM	152 nM	–
AUGACAGAAUCGGCCGCCACUCAUUGUCCUGUGGACAUUCUAGGAUUAGUGAUGUUUUUCCCAUCGAGGACCGGGAUACAGAUUG [theeternabot_sameState_KL_Trp_B_6]	675 nM	267 nM	467 nM	398 nM	519 nM	–
GCAUAUACGAGAAGGAGCGUGCAUGACGAAUUAAUCAUCGACCUUAGUGAUGUUAAGGACGCACAGGUAGGUCGCUCGUGUAUGC [#04 K4 Arginine B Same State]	380 nM	322 nM	347 nM	345 nM	354 nM	–
GCGAAGUGAUGUUUCGCCAAUAUUUGAUGAAAGGAUAUCUACUUGAAGAGAAGGUUCAUAUGACUCAAUACCUGACUUGGACCCG [theeternabot_sameState_KL_FMN_A_37]	86.8 nM	84.2 nM	81.4 nM	82.9 nM	74.6 nM	–
UAAAAGCUAGGAUAUACAUGAGGAUCACCCAUGUCACGGGUGCCACACCGAAAGGUGCGUAGAAGGAGCCCAAA [Orrecedi] (puzzle: Exclusion 3)	–	–	–	–	–	38.4 nM
